# B1: SeAhpC (Staphylococcus epidermidis RP62A) (protein)
# chain: MSLINKEILPFTAQAYDPKKDEFKEVTQEDFKGSWNVVCFYPADFSFVCPTELEDLQNQYAKLQELGVNVYSVSTDTHFVHKAWHDHSDAISKLEYSMIGDPSQTITRNFDVLDEETGLAQRGTFIIDPDGVVQAAEINADGIGRDASTLVNKIKAAQYVRQHPGEVCPAKWEEGSESLQPGLDLVGKI
# Assays:
# Test in all cases: purified protein
# CC(C)(OO)c1ccccc1 [1] = type: biochemical, Pseudomonas aeruginosa; conditions: E. coli Trx/TrxR, NADPH 150 µM, HEPES pH 7.4, 37 °C, DTPA 100 µM, azide 1 mM, fit to low-substrate phase only
# CC(C)(OO)c1ccccc1 [2] = conditions: S. cerevisiae Trx1/TrxR1, NADPH 150 µM, HEPES pH 7.4, 37 °C, DTPA 100 µM, azide 1 mM, fit to low-substrate phase only
# purified protein = substrate: CC(C)(OO)c1ccccc1; conditions: E. coli Trx/TrxR, NADPH 150 µM, HEPES pH 7.4, 37 °C, DTPA 100 µM, azide 1 mM, fit to low-substrate phase only
molecule,measurement,setting,value
PaAhpC (Pseudomonas aeruginosa UCBPP-PA14),Km,CC(C)(OO)c1ccccc1 [1],82 (±14) µM
same,Vmax,CC(C)(OO)c1ccccc1 [1],34.2 µM/min
same,kcat,CC(C)(OO)c1ccccc1 [1],0.18 ± 0.01 s⁻¹
same,kcat/Km,CC(C)(OO)c1ccccc1 [1],2000 ± 200 M⁻¹ s⁻¹
HsPrx2 (Homo sapiens),Km,CC(C)(OO)c1ccccc1 [2],57 (±17) µM
same,Vmax,CC(C)(OO)c1ccccc1 [2],101 µM/min
same,kcat,CC(C)(OO)c1ccccc1 [2],0.56 ± 0.09 s⁻¹
same,kcat/Km,CC(C)(OO)c1ccccc1 [2],9800 ± 1300 M⁻¹ s⁻¹
B1,Km,purified protein,76 (±10) µM
same,Vmax,purified protein,35.4 µM/min
same,kcat,purified protein,0.19 ± 0.01 s⁻¹
same,kcat/Km,purified protein,2500 ± 100 M⁻¹ s⁻¹

# — PMC12729873, “Linoleic Hydroperoxides Are Potent Hyperoxidative Agents of Sensitive and Robust Typical 2-Cys Peroxiredoxins” (Antioxidants, 2025)
